Earlier results, collected in publication PMC8573040.

What was measured:
[1] = target: PhoA (unfolded) (Escherichia coli) [phosphatase: P00634]
[2] = target: MBP (unfolded) (Escherichia coli) [MBP: P0AEX9]
Im7 (Escherichia coli) = Im7 (Escherichia coli) (UniProt Q03708)
Chain of UniProt Q03708 (Q03708 whole entry): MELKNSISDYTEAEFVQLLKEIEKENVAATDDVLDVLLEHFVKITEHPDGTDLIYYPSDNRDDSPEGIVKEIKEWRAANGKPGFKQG

Row | Substance | Kd [1] | Kd [2] | Kd (Im7 (Escherichia coli))
1 | SecB (from UniProt P0AG86) | 500 nM | 50 nM | –
2 | Spy (from UniProt P77754) | – | – | 2000 nM
